This note sets out measurements from the supplement of paper PMC10567573.

± gives the standard deviation.

The nature of the data set: protein stability index of a GFP-peptide fusion (GPS, HEK-293T) (PSI 1-6); higher = more stable.
Setting [1] is: treatment: DMSO, c terminus: a fixed tail appended.
Setting [2] is: treatment: MLN4924 1 uM, 8 h, c terminus: a fixed tail appended.
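Further: 24-mer peptide tiles fused after GFP, lentivirally expressed, FACS-sorted into six equal bins by GFP/DsRed ratio, decoded by Illumina sequencing, PSI is the read-weighted mean bin number.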

HSAVLRDLRSGTLYSLTLYGLRGP [TNXB]: the protein stability index came out at 2.98 ± 0.63 under setting [1] and 2.68 ± 0.38 under setting [2].
In turn, LSWYFLLCVNYFFYGETVADYFAT [CDS1] displayed a protein stability index under setting [1] of 3.11 ± 0.46 and a protein stability index under setting [2] of 3.51 ± 0.53.
The matching figures for PSAPEALHSLPGVSLSLENRELWK [TBX6]: 3.94 ± 0.19 and 3.96 ± 0.33.
The matching figures for LFVLLSVVCVLLNLAGFILGCQGA [FAM189A2]: 3.15 ± 0.38 and 3.25 ± 0.61.
Taken in the same sequence, the figures for LVDFCNKPILLHQVEALAAAGVDH [GMPPB] were 2.65 ± 0.31 and 2.95 ± 0.35.
Consider INAAFMLLFKDLIKLFACYNDGVI [SNAP91], for which the protein stability index under setting [1] stood at 2.9 ± 0.54 and the protein stability index under setting [2] turned out to be 3.39 ± 0.65.
On to ENFEDVGHSTDAREMSKTFIIGEL [CYB5A], for which the protein stability index worked out at 3.95 ± 0.4 under setting [1] and 3.89 ± 0.29 under setting [2].
The matching figures for RVYNNTLTYGEVRNSKASAYCLDQ [GALNT9]: 2.98 ± 0.16 and 3.07 ± 0.31.
On to ANSLLASPTGLSPYLRFGCLSCRL [CRY1], for which the protein stability index is 2.15 ± 0.27 under setting [1] and 2.37 ± 0.32 under setting [2].
Turning to CKLQEQLEATVKKLEESKQLLKNN [SASS6], the protein stability index runs as follows: under setting [1], 3.7 ± 0.15; under setting [2], 3.47 ± 0.26.
Taken in the same sequence, the figures for TKITSKHVKMMLSGVCLFAVFIAL [PTGFR] were 3.2 ± 0.24 and 2.78 ± 0.1.
As for LGFRAFSGSGNRLDGKKKGVEPSP [UFD1], the protein stability index under setting [1] turned out to be 4.25 ± 0.46 and the protein stability index under setting [2] was 3.94 ± 0.29.
Taken in the same sequence, the figures for RRFNENAADRHINFCKEQAARISN [ZC2HC1A] were 2.56 ± 0.17 and 2.51 ± 0.39.
The matching figures for DFDDEKILIQHQKAKHFKCHICHK [ZNF207]: 2.85 ± 0.31 and 3.31 ± 0.19.
The matching figures for GHPFFEGVDWEHIRERPAAIPIEI [STK38L]: 2.46 ± 0.39 and 2.84 ± 0.38.
Take NCTLIISYQKPKEVVVAESELQKE [DPCD]: the protein stability index by setting is: under setting [1], 2.18 ± 0.19; under setting [2], 2.49 ± 0.2.
The matching figures for QQRLQGQLCDVSIRVQGREFRAHR [ZBTB22]: 3.34 ± 0.42 and 3.81 ± 0.5.
For the sequence TEDIQTRQYRSIEVLIGAGYSTPA [SRPK2], the protein stability index is, setting by setting: under setting [1], 2.94 ± 0.4; under setting [2], 2.87 ± 0.5.
The matching figures for VAHCHQSAIVLGDLKLRKFVFSTE [TRIB1]: 2.25 ± 0.36 and 2.36 ± 0.63.
On to WLSSRAAAIKVNDSVPFHLGWNST [MYORG], for which the protein stability index amounted to 1.99 ± 0.23 under setting [1] and 2.19 ± 0.38 under setting [2].
The matching figures for TVTLTVAVADSIPQVLADLGSFES [PCDHGA10]: 2.28 ± 0.32 and 2.11 ± 0.093.
The matching figures for RVLMYGSELDADHPGFKDNVYRKR [TPH1]: 3.59 ± 0.11 and 3.8 ± 0.29.
Turning to LYVSLHRYDHGTFFPMGDEGASSQ [HDAC6], the protein stability index worked out at 2.17 ± 0.51 under setting [1] and 2.31 ± 0.28 under setting [2].
The matching figures for ETVGGAILDQTTSEDAVGGATLGQ [HDAC6]: 5.29 ± 0.25 and 5.62 ± 0.25.
The matching figures for KECKDRGFEYDGKINAWDLYYYMT [NLN]: 2.52 ± 0.3 and 2.16 ± 0.29.
Taken in the same sequence, the figures for DWVPVESLLRPLNSLAALDLSGIQ [ZER1] were 2.42 ± 0.61 and 2.41 ± 0.49.
The sequence PAPQVGTQIRTITEEIRDGKVISS [KRT36] had a protein stability index under setting [1] of 5.08 ± 0.2 and a protein stability index under setting [2] of 5.17 ± 0.23.
The matching figures for GLLICLPREQAARFCSEIKSSKYG [SEPHS2]: 2.04 ± 0.28 and 2.17 ± 0.55.
Taken in the same sequence, the figures for FCADNPSELPPPMERTGGIGDSRP [DVL3] were 4.45 ± 0.32 and 4.62 ± 0.32.
The matching figures for LKPTASKLGAPLSGLQGLPECTRC [PDLIM4]: 3.24 ± 0.31 and 3.44 ± 0.12.
For HKQDGKAGLFSQEQYERNKSSSSS [TMEM40], the protein stability index stood at 5.3 ± 0.35 under setting [1] and 5.31 ± 0.15 under setting [2].
Taken in the same sequence, the figures for RQVPGSDPACYEFLWGPRALVETS [MAGEA3] were 3.11 ± 0.23 and 3.04 ± 0.37.
The matching figures for EGGVLRGSKLEKGHLRGPEIRDWR [ZSWIM9]: 3.8 ± 0.2 and 4.02 ± 0.31.
Taken in the same sequence, the figures for AFASFTSGVVRIWDLRDQSVVRDL [TLE6] were 2.36 ± 0.47 and 2.21 ± 0.35.
Turning to VFQTEQKNLFRLEMDMVVFRPEMK [N4BP2L1], the protein stability index by setting is: under setting [1], 2.02 ± 0.26; under setting [2], 2.16 ± 0.092.
Turning to APGVLTNKRKTYTESYIARPDGDC [ZC2HC1A], the protein stability index came out at 4.27 ± 0.12 under setting [1] and 4.29 ± 0.3 under setting [2].
Take DDLETMPDDLLTTLDDTCDLFAPL [ATF4]: the protein stability index came out at 5.01 ± 0.088 under setting [1] and 5.08 ± 0.16 under setting [2].
The matching figures for PEIDMFLNVATFLDPRYKRLPFLS [ZBED1]: 2.42 ± 0.43 and 2.25 ± 0.48.
For the sequence LEHGSIYIPSSYVDSHHEYPAMTF [ESR2], the protein stability index runs as follows: under setting [1], 2.19 ± 0.18; under setting [2], 2.06 ± 0.56.
The matching figures for NGMNAVMMHGRSYSLASGAGGGGS [RAB40C]: 3.19 ± 0.26 and 3.34 ± 0.34.
The matching figures for ASVSSHRFFGPNAEISQPPALSQL [TCF25]: 3.35 ± 0.46 and 3.29 ± 0.35.
Taken in the same sequence, the figures for PQQGFFSSFFTCNQKCQLRLLKTL [ATP23] were 2.36 ± 0.4 and 2.13 ± 0.3.
VTADDFVQTSVIGSNGYILNKPAL [EHMT1]: the protein stability index under setting [1] amounted to 3.11 ± 0.26 and the protein stability index under setting [2] came out at 3.13 ± 0.25.
For SNKKMLLLVGGLPPGPDRLPSNLV [KLHL14], the protein stability index by setting is: under setting [1], 2.17 ± 0.19; under setting [2], 2.34 ± 0.22.
In the case of DSGQYWPSIYHTMASPCSAMAYHH [WDFY1], the protein stability index is, setting by setting: under setting [1], 2.34 ± 0.2; under setting [2], 2.38 ± 0.13.
IMIIICCVILGIVIASTVGGIFA [STX1A]: the protein stability index runs as follows: (treatment: DMSO, c terminus: native) 3.62 ± 0.33; (treatment: MLN4924 1 uM, 8 h, c terminus: native) 3.79 ± 0.14.
Take VQDYSYFFFLRMDENYNLLPHGVN [CCDC3]: the protein stability index came to 2.38 ± 0.48 under setting [1] and 2.48 ± 0.37 under setting [2].
Taken in the same sequence, the figures for RSGHTQTDYINASFMDGYKQKNAY [PTPN9] were 3.52 ± 0.2 and 3.61 ± 0.18.
Taken in the same sequence, the figures for GVEPSPSPIKPGDIKRGIPNYEFK [UFD1] were 4.25 ± 0.24 and 4.24 ± 0.24.
With RDLLGALKHWRRAMELRHQGGEYL [FEM1A], the protein stability index reads like this: under setting [1], 2.46 ± 0.2; under setting [2], 2.5 ± 0.45.
For VCDESVRKLSSAVRSGIVEYLSLV [PRIM1], the protein stability index is, setting by setting: under setting [1], 2.34 ± 0.83; under setting [2], 2.1 ± 0.3.
The matching figures for SKIGSTDNIKYQPKGGQVQIVTKK [MAP2]: 4.37 ± 0.17 and 4.63 ± 0.18.
Taken in the same sequence, the figures for AVRKLKFARHIKKSEGQKIPKVEL [GULP1] were 3.1 ± 0.091 and 3.13 ± 0.21.
The sequence VEAKSWTASSSYGKGEGPIWLDNL [LOXL2] gave a protein stability index under setting [1] of 2.42 ± 0.31 and a protein stability index under setting [2] of 2.61 ± 0.74.
Take ETALTLACCGGFLEVADFLIKAGA [ANKRD17]: the protein stability index runs as follows: under setting [1], 2.54 ± 0.9; under setting [2], 2.65 ± 0.76.
Sequence DGMSGLAGVGLSGGAAGAGWCIFV [ELAVL3] gave a protein stability index under setting [1] of 2.83 ± 1.1 and a protein stability index under setting [2] of 2.69 ± 0.98.
Taken in the same sequence, the figures for EAAVEALELLGATYVDKKRDLLGA [FEM1A] were 3.27 ± 0.31 and 3.49 ± 0.21.
As to MIEDNKENKDHSLERGRASLIFSL [TPH1], the protein stability index by setting is: under setting [1], 3.25 ± 0.36; under setting [2], 3.36 ± 0.18.
Taken in the same sequence, the figures for SKSLMTSVPMNGTSIQWKNHDQNN [EDNRA] were 4.25 ± 0.045 and 4.41 ± 0.18.
Taken in the same sequence, the figures for RMRYEGVVDIFQTVKMLRTQRPAM [PTPRD] were 2.18 ± 0.18 and 2.38 ± 0.29.
The matching figures for DTSMDGTEPPQNPVTPLGLQNEVP [SERTAD3]: 5.4 ± 0.19 and 5.38 ± 0.34.
Regarding PLFNPMIYSLRNKEFKSALCKIVR [OR10K2], the protein stability index by setting is: under setting [1], 2.32 ± 0.071; under setting [2], 1.9 ± 0.5.
Take PGAFIAGVPVQPVLIRYPNSLDTT [LPCAT4]: the protein stability index came out at 2.72 ± 0.19 under setting [1] and 2.75 ± 0.36 under setting [2].
Taken in the same sequence, the figures for TKRVRQLLDLDPEVECLKANTNEV [GOLPH3] were 4.29 ± 0.32 and 4.62 ± 0.22.
Taken in the same sequence, the figures for ASAIKKEELVARSETHAAGHSQEK [CHGB] were 5.4 ± 0.43 and 5.37 ± 0.31.
Consider PRRSLSISKNKKKASNSIISCFNN [FAN1], for which the protein stability index by setting is: under setting [1], 2.79 ± 0.13; under setting [2], 3.75 ± 0.29.
Taken in the same sequence, the figures for NDDYYEESYFTTRTYGEPESAGPS [EMD] were 4.84 ± 0.17 and 4.72 ± 0.17.
The matching figures for ERCLLNNSLWKKNKTICKERLQIL [NLN]: 2.31 ± 0.26 and 2.7 ± 0.49.
Taken in the same sequence, the figures for VQESQSERLQAAGTDSAGPKTVPS [ELOA2] were 5.29 ± 0.38 and 5.19 ± 0.35.
Regarding AFQHTPTSITLTASRVSKVNDKRR [KMT2E], the protein stability index runs as follows: under setting [1], 3.74 ± 0.27; under setting [2], 4.11 ± 0.47.
In the case of SFLEQIMAPLQPSTSRAHKLPSRR [FAM189A2], the protein stability index was 2.8 ± 0.4 under setting [1] and 3.1 ± 0.3 under setting [2].
Taken in the same sequence, the figures for GPARSGFRLETLAGLRSRRLKQPK [MIR22HG] were 3.87 ± 0.24 and 4.14 ± 0.13.
